Assay results: article PMC4879639 (2016)

T1: recombinant mouse sortilin (mouse, UniProt Q6PHU5 74-754)
T1 chain: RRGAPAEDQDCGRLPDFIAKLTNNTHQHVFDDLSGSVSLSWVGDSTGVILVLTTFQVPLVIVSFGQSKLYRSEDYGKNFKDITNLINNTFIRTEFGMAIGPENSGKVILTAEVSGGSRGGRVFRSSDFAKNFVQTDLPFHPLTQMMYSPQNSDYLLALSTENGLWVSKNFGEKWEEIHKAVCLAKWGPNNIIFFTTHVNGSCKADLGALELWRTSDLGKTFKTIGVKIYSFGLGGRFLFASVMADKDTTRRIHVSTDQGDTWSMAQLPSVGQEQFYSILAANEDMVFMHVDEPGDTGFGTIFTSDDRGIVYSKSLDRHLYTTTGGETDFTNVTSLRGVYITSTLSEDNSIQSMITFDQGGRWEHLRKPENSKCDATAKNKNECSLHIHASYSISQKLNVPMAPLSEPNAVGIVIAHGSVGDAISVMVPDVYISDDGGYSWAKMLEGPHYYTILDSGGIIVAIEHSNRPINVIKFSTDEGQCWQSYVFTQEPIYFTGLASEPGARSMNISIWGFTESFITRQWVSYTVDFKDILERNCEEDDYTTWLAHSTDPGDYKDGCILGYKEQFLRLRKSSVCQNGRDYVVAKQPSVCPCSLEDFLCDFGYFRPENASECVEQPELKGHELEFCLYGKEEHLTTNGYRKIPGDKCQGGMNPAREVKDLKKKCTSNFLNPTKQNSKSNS


Target: T1, recombinant mouse sortilin
Experiment: SPR

Kd [nM]	Binder
1100	recombinant IL-6 (ligand) FPTSQVRRGDFTEDTTPNRPVYTTSQVGGLITHVLWEIVEMRKELCNGNSDCMNNDDALAENNLKLPEIQRNDGCYQTGYNQEICLLKISSGLLEYHSYLEYMKNNLKDNKKDKARVLQRDTETLIHIFNQEVKDLHKIVLPTPISNALLTDKLESQKEWLRTKTIQFILKSLEEFLKVTLRSTRQT
287	recombinant IL-10 (ligand) SRGQYSREDNNCTHFPVGQSHMLLELRTAFSQVKTFFQTKDQLDNILLTDSLMQDFKGYLGCQALSEMIQFYLVEVMPQAEKHGPEIKEHLNSLGEKLKTLRMRLRRCHRFLPCENKSKAVEQVKSDFNKLQDQGVYKAMNEFDIFINCIEAYMMIKMKS
13.6	recombinant IL-12 (complex) chain 1: RVIPVSGPARCLSQSRNLLKTTDDMVKTAREKLKHYSCTAEDIDHEDITRDQTSTLKTCLPLELHKNESCLATRETSSTTRGSCLPPQKTSLMMTLCLGSIYEDLKMYQTEFQAINAALQNHNHQQIILDKGMLVAIDELMQSLNHNGETLRQKPPVGEADPYRVKMKLCILLHAFSTRVVTINRVMGYLSSA chain 2: MWELEKDVYVVEVDWTPDAPGETVNLTCDTPEEDDITWTSDQRHGVIGSGKTLTITVKEFLDAGQYTCHKGGETLSHSHLLLHKKENGIWSTEILKNFKNKTFLKCEAPNYSGRFTCSWLVQRNMDLKFNIKSSSSSPDSRAVTCGMASLSAEKVTLDQRDYEKYSVSCQEDVTCPTAEETLPIELALEARQQNKYENYSTSFFIRDIIKPDPPKNLQMKPLKNSQVEVSWEYPDSWSTPHSYFSLKFFVRIQRKKEKMKETEEGCNQKGAFLVEKTSTEVQCKGGNVCVQAQDRYYNSSCSKWACVPCRVRS
335	recombinant IL-17A (ligand) AAIIPQSSACPNTEAKDFLQNVKVNLKVFNSLGAKVSSRRPSDYLNRSTSPWTLHRNEDPDRYPSVIWEAQCRHQRCVNAEGKLDHHMNSVLIQQEILVLKREPESCPFTFRVEKMLVGVGCTCVASIVRQAA
550	GST-fused mouse IFN-α (ligand) CDLPHTYNLRNKRALKVLAQMRRLPFLSCLKDRQDFGFPLEKVDNQQIQKAQAIPVLRDLTQQTLNLFTSKASSAAWNATLLDSFCNDLHQQLNDLQTCLMQQVGVQEPPLTQEDALLAVRKYFHRITVYLREKKHSPCAWEVVRAEVWRALSSSVNLLPRLSEEKE
2600	recombinant IFN-γ (ligand) HGTVIESLESLNNYFNSSGIDVEEKSLFLDIWRNWQKDGDMKILQSQIISFYLRLFEVLKDNQAISNNISVIESHLITTFFSNSKAKKDAFMSIAKFEVNNPQVQRQAFNELIRVVHQLLPESSLRKRKRSRC
